Test results as given in article PMC10760634.
Values belong to the substance of their own block, whether it stands above or below them.

Legend:
[1] = target: the PHD and PHF7 (KD values in the range of 3–6 µM); assay: MST
[2] = target: UBE2D2∼Ub (ubiquitin-conjugated UBE2D2 S22R/C85K) (UniProt P62837); assay: ITC
[3] = target: UBE2D2∼Ub (ubiquitin-conjugated UBE2D2 S22R/C85K) (UniProt P62837); assay: SEC

Chain of PHF7 (mPHF7 28–307) (Q9DAG9 28-307): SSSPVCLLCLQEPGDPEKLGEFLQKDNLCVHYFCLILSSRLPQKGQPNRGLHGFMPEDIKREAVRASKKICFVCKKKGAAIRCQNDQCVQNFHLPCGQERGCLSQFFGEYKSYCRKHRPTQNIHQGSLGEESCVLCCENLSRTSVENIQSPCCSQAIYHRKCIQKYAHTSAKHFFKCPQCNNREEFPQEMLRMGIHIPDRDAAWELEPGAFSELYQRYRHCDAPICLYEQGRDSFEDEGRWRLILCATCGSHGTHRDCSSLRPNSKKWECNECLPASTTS

Kd [1]: 3000 to 6000 nM
Substance: H3K4me2(1–44) (from UniProt P84233 2-45) (peptide)

Kd [2]: 400 nM
fold stronger affinity than for UBE2D2 alone [2]: 3 fold
stoichiometry N [3]: 1
Substance: PHF7 (mPHF7 28–307) (from UniProt Q9DAG9 28-307) (domain or fragment)

fold lower affinity than PHF7 [2]: 7 fold
Substance: PHF7 RING–PHD (150–307) C164A (from UniProt Q9DAG9 150-307) (domain or fragment)
